Measurements from patent US20200123260A1.

B1: NT3 (R&D267N3) (ligand, UniProt P20783 139-257, looked up, species assumed)
Neurotrophin-3: YAEHKSHRGEYSVCDSESLWVTDKSSAIDIRGHQVTVLGEIKTGNSPVKQYFYETRCKEARPVKNGCRGIDDKHWNSQCKTSQTYVRALTSENNKLVGWRWIRIDTSCVCALSRKIGRT
modifications: Neurotrophin-3
B2: NT-4 (ligand, UniProt P34130 81-210, looked up, species assumed)
Neurotrophin-4: GVSETAPASRRGELAVCDAVSGWVTDRRTAVDLRGREVEVLGEVPAAGGSPLRQYFFETRCKADNAEEGGPGAGGGGCRGVDRRHWVSECKAKQSYVRALTADAQGRVGWRWIRIDTACVCTLLSRTGRA
modifications: Neurotrophin-4
B3: TAM-163 (huTOA-1 v1.0/1.4) (antibody, human IgG1, kappa, V domains shown)
VH: EVQLVESGGGLVQPGGSLRLSCAASGYSFTAYFMNWVRQAPGKGLEWVARINPNNGDTFYTQKFKGRFTISRDNAKNSLYLQMNSLRAEDTAVYYCARRDYFGAMDYWGQGTLVTVSS
VL: DIQMTQSPSSLSASVGDRVTITCRASQTISNNLHWYQQKPGKAPKLLIKSASLAISGVPSRFSGSGSGTDFTLTISSLQPEDFATYYCQQSNSWPNTFGGGTKVEIKR
B4: mouse TOA-1 antibody (antibody, mouse IgG1, V domains shown)
VH: EVQLQQSGPELVKPGASMKISCKTSGYSFTAYFMNWVKQSHGKSLEWIGRINPNNGDTFYTQKFKGKATLTVDKSSNTAHMELLSLTSEDSAIYYCGRRDYFGAMDYWGQGTSVTVSS
VL: AIVLIQSPATLSVTPGDSVSLSCRASQTISNNLHWYQQKSHESPRLLIKSASLAISGIPSRFSGSGSGTDFTLSISSVETEDFGMYFCQQSNSWPNTFGGGTKLEIK

Assays:
[1] = target: hTrkB-a isoform fused to a small peptide epitope, in U2OS cells (Discoverx Pathhunter) (human) (UniProt Q16620); test: cell-based or functional assay
Chain of hTrkB-a isoform fused to a small peptide epitope, in U2OS cells (Discoverx Pathhunter) (human) (Q16620 32-822): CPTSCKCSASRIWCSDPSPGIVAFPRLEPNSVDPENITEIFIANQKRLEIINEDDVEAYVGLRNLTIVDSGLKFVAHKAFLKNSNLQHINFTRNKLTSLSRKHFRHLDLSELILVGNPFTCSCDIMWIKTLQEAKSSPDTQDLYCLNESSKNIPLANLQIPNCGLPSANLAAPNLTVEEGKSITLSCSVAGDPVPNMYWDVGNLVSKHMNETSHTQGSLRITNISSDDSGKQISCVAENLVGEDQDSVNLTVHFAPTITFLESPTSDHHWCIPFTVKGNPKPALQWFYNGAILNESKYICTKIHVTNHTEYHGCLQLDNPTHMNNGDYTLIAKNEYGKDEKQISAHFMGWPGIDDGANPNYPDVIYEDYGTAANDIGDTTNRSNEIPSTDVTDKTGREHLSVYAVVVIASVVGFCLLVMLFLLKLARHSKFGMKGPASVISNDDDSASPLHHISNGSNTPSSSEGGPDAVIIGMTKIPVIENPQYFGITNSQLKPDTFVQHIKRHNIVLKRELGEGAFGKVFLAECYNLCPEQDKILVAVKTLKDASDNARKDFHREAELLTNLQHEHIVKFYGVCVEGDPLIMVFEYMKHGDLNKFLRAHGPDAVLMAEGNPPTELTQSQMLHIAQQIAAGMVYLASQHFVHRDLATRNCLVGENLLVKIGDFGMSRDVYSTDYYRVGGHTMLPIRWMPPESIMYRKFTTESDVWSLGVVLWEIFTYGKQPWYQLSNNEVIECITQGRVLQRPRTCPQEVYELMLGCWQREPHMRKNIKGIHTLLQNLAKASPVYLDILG

[2] = target: hTrkC in the SHC1 recruitment assay (U2OS, Discoverx Pathhunter) (human) (UniProt Q16288); test: cell-based or functional assay
Chain of hTrkC in the SHC1 recruitment assay (U2OS, Discoverx Pathhunter) (human) (Q16288 32-839): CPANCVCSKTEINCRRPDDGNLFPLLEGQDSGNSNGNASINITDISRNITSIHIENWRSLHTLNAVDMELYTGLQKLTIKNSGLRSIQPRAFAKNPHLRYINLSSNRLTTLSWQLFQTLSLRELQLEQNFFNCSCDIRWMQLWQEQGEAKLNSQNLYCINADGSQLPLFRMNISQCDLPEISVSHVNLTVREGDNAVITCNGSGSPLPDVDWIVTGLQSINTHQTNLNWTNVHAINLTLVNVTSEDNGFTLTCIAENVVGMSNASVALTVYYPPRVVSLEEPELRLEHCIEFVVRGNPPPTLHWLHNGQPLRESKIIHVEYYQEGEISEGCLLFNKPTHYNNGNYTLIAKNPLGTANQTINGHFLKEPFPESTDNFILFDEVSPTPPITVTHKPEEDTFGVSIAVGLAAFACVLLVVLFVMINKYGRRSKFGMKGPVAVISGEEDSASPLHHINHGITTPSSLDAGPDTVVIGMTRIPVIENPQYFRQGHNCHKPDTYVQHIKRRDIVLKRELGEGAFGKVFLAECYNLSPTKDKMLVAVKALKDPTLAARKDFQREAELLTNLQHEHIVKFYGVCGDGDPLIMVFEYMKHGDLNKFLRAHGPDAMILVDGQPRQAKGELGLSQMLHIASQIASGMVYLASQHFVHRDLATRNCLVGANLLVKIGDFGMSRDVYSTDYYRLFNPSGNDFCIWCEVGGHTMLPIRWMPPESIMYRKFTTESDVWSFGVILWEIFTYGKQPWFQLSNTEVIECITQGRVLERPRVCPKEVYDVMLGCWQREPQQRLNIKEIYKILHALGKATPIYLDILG

[3] = target: human TrkC (open reading frame from NM_001012338.1) in HEK-293 cells (human) (UniProt Q16288); test: cell-based or functional assay
Chain of human TrkC (open reading frame from NM_001012338.1) in HEK-293 cells (human) (Q16288 32-839): as above

[4] = target: hTrkA in the SHC1 recruitment assay (U2OS, Discoverx Pathhunter) (human) (UniProt P04629); test: cell-based or functional assay
Chain of hTrkA in the SHC1 recruitment assay (U2OS, Discoverx Pathhunter) (human) (P04629 33-796): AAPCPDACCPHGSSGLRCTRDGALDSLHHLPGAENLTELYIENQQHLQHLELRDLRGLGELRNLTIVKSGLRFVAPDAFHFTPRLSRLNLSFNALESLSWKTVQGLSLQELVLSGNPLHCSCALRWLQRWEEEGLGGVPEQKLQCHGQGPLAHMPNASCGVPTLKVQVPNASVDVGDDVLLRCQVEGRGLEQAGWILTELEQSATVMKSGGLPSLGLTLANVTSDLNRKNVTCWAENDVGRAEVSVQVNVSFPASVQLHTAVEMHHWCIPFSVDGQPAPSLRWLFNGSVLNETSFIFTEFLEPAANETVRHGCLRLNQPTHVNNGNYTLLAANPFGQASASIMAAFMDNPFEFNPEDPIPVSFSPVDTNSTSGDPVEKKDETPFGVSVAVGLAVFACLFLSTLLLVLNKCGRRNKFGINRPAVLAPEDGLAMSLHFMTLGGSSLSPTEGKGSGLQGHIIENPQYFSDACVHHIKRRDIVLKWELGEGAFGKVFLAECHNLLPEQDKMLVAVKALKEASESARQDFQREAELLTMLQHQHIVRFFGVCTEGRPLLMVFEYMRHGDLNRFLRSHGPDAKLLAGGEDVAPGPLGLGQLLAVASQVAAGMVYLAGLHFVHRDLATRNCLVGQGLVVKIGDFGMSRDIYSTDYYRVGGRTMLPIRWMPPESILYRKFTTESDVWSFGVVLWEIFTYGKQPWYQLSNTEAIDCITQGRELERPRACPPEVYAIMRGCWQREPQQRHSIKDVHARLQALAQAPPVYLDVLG

[5] = target: TrkB, Dog (Canis familiaris, XM_851329) on 293 cells (dog (Canis familiaris)); test: cell-based ELISA on transfected 293 cells
Chain of TrkB, Dog (Canis familiaris, XM_851329) on 293 cells (dog (Canis familiaris)) (Q16620 other isoform, or with tags, fused parts or gaps limits assumed): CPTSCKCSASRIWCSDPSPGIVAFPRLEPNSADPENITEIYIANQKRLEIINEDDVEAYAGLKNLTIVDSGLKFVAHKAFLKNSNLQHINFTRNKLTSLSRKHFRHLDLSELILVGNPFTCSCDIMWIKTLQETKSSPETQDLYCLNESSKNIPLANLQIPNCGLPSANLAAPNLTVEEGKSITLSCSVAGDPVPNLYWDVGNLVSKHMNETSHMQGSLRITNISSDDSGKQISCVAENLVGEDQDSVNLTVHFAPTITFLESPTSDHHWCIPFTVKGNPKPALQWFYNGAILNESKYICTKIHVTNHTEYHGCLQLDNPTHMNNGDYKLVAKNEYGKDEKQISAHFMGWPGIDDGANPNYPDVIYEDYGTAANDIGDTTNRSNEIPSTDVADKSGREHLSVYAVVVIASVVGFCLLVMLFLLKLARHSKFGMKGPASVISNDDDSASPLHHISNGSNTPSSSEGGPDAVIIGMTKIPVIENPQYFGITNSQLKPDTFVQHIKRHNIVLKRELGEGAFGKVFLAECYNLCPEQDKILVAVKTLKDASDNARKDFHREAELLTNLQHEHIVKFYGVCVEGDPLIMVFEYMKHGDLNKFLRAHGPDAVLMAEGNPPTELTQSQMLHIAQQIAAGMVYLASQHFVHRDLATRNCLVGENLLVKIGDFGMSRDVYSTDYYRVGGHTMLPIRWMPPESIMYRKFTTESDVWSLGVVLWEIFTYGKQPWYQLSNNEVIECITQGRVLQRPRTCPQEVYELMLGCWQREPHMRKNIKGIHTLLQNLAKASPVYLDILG

[6] = target: TrkB, Dog (Canis familiaris, XM_851329) on 293 cells (dog (Canis familiaris)); test: cell-based ELISA on transiently transfected HEK293 cells

| Binder | EC50, SHC1 recruitment assay [1] [nM] | Fold-increase, SHC1 recruitment assay [1] [fold] | EC50, SHC1 recruitment assay [2] [nM] | Fold-increase, SHC1 recruitment assay [2] [fold] | Cre-luciferase reporter, fold increase [3] [fold] | EC50, SHC1 recruitment assay [4] [nM] | Fold-increase, SHC1 recruitment assay [4] [fold] | EC50 [5] [nM] | EC50 [6] [nM] |
| --- | --- | --- | --- | --- | --- | --- | --- | --- | --- |
| B1 | 0.5 | 7.7 | 0.86 | 10.5 | 2.9 | 1.49 | 9.2 |  |  |
| B2 | 0.33 | 6.1 |  | 1.1 |  | 0.43 | 9 |  |  |
| B3 |  |  |  |  |  |  |  | 0.55 | 0.94 |
| B4 |  |  |  |  |  |  |  | 0.65 |  |
